Consider four molecules from paper PMC5207133.

Read-outs that look alike come from different tables or passages of the source.

Series [1] addresses T1, Ku70/80 heterodimer (human (HeLa cells), UniProt P12956;P13010 1-609;1-732). The conditions noted are these: protein: native; copies: 1;1; label: 3'-FAM on strand 2; blunt.
For series [2], the target named is T2, Ku70/80 heterodimer;DNA-PKcs;APLF (human (HeLa cells);human (HeLa …, UniProt P12956;P13010;P78527;Q8IW19 1-609;1-732;1-4128;1-511, ||)). The note with it: protein: native;native;recombinant; tags: ;;GST removed by PreScission protease; copies: 1;1;1;1; label: 3'-FAM on strand 2; blunt.
For series [3], the target named is T3, Ku70/80 heterodimer;DNA-PKcs (human (HeLa cells);human (HeLa cells), UniProt P12956;P13010;P78527 1-609;1-732;1-4128, |). The note with it: protein: native;native, tags: ;, copies: 1;1;1, blunt.
Series [4] has as its target T4, Ku70/80 heterodimer;APLF (human (HeLa cells);human, UniProt P12956;P13010;Q8IW19 1-609;1-732;1-511, |). The note with it: protein: native;recombinant, tags: ;GST removed by PreScission protease, copies: 1;1;1, blunt.
The target in series [5] is T1, Ku70/80 heterodimer. The note with it: protein: native; copies: 1;1; label: 3'-FAM on strand 1; blunt.
In series [6] the target is T2, Ku70/80 heterodimer;DNA-PKcs;APLF. The conditions noted are these: protein: native;native;recombinant; tags: ;;GST removed by PreScission protease; copies: 1;1;1;1; label: 3'-FAM on strand 1; blunt.
Series [7] addresses T5, APLF (human, UniProt Q8IW19 1-511). The note with it: protein: recombinant; tags: GST removed by PreScission protease; label: 3'-FAM on strand 1; blunt.
For series [8], the target named is T4, Ku70/80 heterodimer;APLF. The note with it: protein: native;recombinant; tags: ;GST removed by PreScission protease; copies: 1;1;1; 20-bp duplex with stem-loop at one end and 5-nt overhang at the other.
In series [9] the target is T5, APLF. The conditions noted are these: protein: recombinant; tags: GST removed by PreScission protease; 20-bp duplex with stem-loop at one end and 5-nt overhang at the other.
For series [10], the target named is XRCC4-DNA ligase IV (X4L4) (human, UniProt Q13426;P49917 1-336;1-911). The note with it: protein: recombinant; chain copies: 2;1; 20-bp duplex with stem-loop at one end and 5-nt overhang at the other.
Series [11] addresses T6, Ku70/80 heterodimer;XRCC4-DNA ligase IV (X4L4);APLF (human (HeLa cells);human;human, UniProt P12956;P13010;Q13426;P49917;Q8IW19 1-609;1-732;1-336;1-911;1-511, ||). The note with it: protein: native;recombinant;recombinant; tags: ;;GST removed by PreScission protease; copies: 1;1;2;1;1; 20-bp duplex with stem-loop at one end and 5-nt overhang at the other.
Series [12] concerns the target Ku70/80 heterodimer;XRCC4-DNA ligase IV (X4L4) (human (HeLa cells);human, UniProt P12956;P13010;Q13426;P49917 1-609;1-732;1-336;1-911, |). The note with it: protein: native;recombinant; tags: ;; copies: 1;1;2;1; 20-bp duplex with stem-loop at one end and 5-nt overhang at the other.
Series [13] has as its target T1, Ku70/80 heterodimer. The note with it: protein: native; copies: 1;1; 20-bp duplex with stem-loop at one end and 5-nt overhang at the other.
Series [14] concerns the target T3, Ku70/80 heterodimer;DNA-PKcs. The conditions noted are these: protein: native;native; tags: ;; copies: 1;1;1; 20-bp duplex with stem-loop at one end and 5-nt overhang at the other.
For series [15], the target named is T2, Ku70/80 heterodimer;DNA-PKcs;APLF. The note with it: protein: native;native;recombinant; tags: ;;GST removed by PreScission protease; copies: 1;1;1;1; 20-bp duplex with stem-loop at one end and 5-nt overhang at the other.
For series [16], the target named is T6, Ku70/80 heterodimer;XRCC4-DNA ligase IV …. The conditions noted are these: protein: native;recombinant;recombinant; tags: ;;GST removed by PreScission protease; copies: 1;1;2;1;1; two stem-loop duplexes (strands 1+2, 3+4) annealing via complementary 10-nt A/T overhangs.

T4 sequence (P12956 whole entry, chain 1 of 3): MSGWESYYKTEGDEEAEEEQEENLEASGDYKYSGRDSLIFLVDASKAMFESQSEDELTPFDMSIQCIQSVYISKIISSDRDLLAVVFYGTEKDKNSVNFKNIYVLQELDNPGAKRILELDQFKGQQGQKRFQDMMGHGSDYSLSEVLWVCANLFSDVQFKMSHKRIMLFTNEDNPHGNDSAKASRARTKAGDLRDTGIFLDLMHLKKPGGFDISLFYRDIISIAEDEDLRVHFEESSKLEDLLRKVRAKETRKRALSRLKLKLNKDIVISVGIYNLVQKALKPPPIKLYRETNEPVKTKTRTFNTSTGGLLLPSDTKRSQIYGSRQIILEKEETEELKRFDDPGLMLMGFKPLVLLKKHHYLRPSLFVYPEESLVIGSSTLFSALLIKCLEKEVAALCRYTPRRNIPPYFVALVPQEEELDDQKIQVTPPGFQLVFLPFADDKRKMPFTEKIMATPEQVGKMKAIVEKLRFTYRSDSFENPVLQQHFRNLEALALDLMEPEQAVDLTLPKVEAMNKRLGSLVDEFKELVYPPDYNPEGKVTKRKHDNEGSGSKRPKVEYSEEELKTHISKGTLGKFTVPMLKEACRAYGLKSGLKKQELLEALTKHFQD
T4 sequence (P13010 whole entry, chain 2 of 3): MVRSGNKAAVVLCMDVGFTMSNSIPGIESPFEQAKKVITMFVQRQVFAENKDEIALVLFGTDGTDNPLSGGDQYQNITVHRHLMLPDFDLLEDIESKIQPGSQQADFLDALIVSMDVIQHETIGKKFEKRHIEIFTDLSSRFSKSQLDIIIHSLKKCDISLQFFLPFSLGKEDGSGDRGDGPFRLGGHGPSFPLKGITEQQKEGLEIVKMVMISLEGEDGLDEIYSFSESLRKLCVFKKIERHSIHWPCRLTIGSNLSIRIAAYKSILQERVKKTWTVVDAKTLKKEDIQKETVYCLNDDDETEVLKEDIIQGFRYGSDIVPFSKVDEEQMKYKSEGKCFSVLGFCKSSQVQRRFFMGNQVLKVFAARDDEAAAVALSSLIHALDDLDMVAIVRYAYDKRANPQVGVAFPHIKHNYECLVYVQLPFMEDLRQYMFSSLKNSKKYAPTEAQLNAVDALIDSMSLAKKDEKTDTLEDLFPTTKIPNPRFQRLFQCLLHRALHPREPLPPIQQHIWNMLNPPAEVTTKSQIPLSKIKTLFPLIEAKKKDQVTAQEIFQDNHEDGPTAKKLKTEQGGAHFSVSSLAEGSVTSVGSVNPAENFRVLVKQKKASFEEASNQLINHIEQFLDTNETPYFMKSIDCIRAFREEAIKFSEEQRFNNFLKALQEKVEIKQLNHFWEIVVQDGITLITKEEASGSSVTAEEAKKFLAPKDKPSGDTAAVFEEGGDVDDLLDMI
T4 sequence (Q8IW19 whole entry, chain 3 of 3): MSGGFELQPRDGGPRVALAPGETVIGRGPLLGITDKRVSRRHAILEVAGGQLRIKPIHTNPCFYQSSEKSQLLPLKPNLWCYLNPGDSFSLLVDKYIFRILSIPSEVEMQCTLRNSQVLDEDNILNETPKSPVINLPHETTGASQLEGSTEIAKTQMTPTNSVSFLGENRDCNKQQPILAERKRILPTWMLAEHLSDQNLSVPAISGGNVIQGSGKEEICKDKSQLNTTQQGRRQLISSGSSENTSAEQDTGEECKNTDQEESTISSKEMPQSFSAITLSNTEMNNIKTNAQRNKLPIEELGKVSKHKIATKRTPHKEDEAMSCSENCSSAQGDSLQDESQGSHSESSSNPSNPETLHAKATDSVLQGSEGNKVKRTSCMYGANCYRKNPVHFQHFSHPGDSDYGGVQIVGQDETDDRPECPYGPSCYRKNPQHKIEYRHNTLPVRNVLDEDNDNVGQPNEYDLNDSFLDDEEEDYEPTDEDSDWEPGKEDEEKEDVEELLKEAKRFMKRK
T1 sequence (P12956 whole entry, chain 1 of 2): as the sequence (P12956 whole entry, chain 1 of 3) above
T1 sequence (P13010 whole entry, chain 2 of 2): as the sequence (P13010 whole entry, chain 2 of 3) above
Sequence of Ku70/80 heterodimer;XRCC4-DNA ligase IV (X4L4) (P12956 whole entry, chain 1 of 4): as the sequence (P12956 whole entry, chain 1 of 3) above
Sequence of Ku70/80 heterodimer;XRCC4-DNA ligase IV (X4L4) (P13010 whole entry, chain 2 of 4): as the sequence (P13010 whole entry, chain 2 of 3) above
Sequence of Ku70/80 heterodimer;XRCC4-DNA ligase IV (X4L4) (Q13426 whole entry, chain 3 of 4): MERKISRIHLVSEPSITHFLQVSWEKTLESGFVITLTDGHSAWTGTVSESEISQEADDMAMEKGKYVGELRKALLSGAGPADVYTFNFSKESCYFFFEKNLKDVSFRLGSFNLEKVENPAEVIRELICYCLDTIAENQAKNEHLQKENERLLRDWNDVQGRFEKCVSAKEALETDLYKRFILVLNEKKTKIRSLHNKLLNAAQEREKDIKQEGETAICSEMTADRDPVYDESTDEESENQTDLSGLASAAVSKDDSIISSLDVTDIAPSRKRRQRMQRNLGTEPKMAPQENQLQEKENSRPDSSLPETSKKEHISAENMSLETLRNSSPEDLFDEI
Sequence of Ku70/80 heterodimer;XRCC4-DNA ligase IV (X4L4) (P49917 whole entry, chain 4 of 4): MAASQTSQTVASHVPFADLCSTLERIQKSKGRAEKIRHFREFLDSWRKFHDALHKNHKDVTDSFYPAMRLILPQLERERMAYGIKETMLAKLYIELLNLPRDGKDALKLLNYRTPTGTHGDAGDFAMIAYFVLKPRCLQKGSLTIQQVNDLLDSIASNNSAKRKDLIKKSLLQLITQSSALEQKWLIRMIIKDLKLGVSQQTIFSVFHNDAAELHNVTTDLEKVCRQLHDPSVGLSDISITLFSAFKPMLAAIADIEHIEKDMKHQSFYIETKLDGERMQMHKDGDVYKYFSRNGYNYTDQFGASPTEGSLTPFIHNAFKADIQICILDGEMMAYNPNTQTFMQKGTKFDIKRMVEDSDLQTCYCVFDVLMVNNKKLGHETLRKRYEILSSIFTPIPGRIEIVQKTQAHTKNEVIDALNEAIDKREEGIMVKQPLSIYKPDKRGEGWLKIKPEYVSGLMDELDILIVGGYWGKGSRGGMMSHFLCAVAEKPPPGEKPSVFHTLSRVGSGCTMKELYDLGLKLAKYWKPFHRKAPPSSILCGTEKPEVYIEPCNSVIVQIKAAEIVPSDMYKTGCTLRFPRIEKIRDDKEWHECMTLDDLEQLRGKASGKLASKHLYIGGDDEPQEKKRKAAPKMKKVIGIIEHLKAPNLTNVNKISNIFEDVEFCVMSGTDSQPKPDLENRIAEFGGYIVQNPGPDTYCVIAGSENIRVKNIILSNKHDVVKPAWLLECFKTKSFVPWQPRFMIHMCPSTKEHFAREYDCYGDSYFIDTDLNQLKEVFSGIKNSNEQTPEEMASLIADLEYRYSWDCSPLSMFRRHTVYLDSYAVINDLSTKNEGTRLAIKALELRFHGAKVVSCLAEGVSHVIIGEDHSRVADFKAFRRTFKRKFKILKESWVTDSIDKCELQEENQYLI
Sequence of XRCC4-DNA ligase IV (X4L4) (Q13426 whole entry, chain 1 of 2): as the sequence (Q13426 whole entry, chain 3 of 4) above
Sequence of XRCC4-DNA ligase IV (X4L4) (P49917 whole entry, chain 2 of 2): as the sequence (P49917 whole entry, chain 4 of 4) above

B1: 25bpDNA 3'-FAM (dsDNA)
DNA 1: AGCATTGACTGGCATCGTAGCATCC
DNA 2: GGATGCTACGATGCCAGTCAATGCT
As for B1, the binding result (with Ku70/80 heterodimer [1]; in series [2]; in series [3] (label: 3'-FAM on strand 2); in the series with Ku70/80 heterodimer;APLF [4] (label: 3'-FAM on strand 2)) was “binds” throughout.

B2: 40bpDNA 3'-FAM (dsDNA)
DNA 1: GGATACACAACAGACCGCAACACTCAGATTACTTTTCGCC
DNA 2: GGCGAAAAGTAATCTGAGTGTTGCGGTCTGTTGTGTATCC
B2: the binding result in the series with Ku70/80 heterodimer [5] is on record as “binds”; in series [6], “binds”; with APLF [7], “no binding”; in series [3] (label: 3'-FAM on strand 1), “binds”; in the series with Ku70/80 heterodimer;APLF [4] (label: 3'-FAM on strand 1) it was “binds”.

B3: 20bpDNA (stem-loop A) (structured_DNA)
DNA 1: CCCACCCAAAAATCAATAATCGACCCTTTCGACCCGCGC
DNA 2: GCGCGGGTTATTTGATTTTTGGGTGGGGTCGA
With B3, the binding result with Ku70/80 heterodimer;APLF [8] is recorded as “binds”; with APLF [9] it was “no binding”; in [10], “no binding”; in series [11], “binds”; in [12], “binds”; with Ku70/80 heterodimer [13], “binds”. The binding result in [14] and in [15] was “binds” throughout.

B4: 20bpDNA-10nt (stem-loop B plus complementary stem-loop) (structured_DNA)
DNA 1: CCCACCCAAAAATCAATAATCGACCCTTTCGACCCGCGC
DNA 2: GCGCGGGTTATTTGATTTTTGGGTGGGAAAAAAAAAA
DNA 3: TTTTTTTTTTCCCACCCAAAAATCAAATAATCGACCCTTTCGACCCGCGC
DNA 4: GCGCGGGTTATTTGATTTTTGGGTGGG
Regarding B4, in series [16], the binding result is listed as “binds”.
